{
  "source": "paper PMC5470993",
  "about": "(2017)",
  "target": "Rac1 (Homo sapiens, UniProt P63000)",
  "test": "GST pull-down",
  "data": [
    {"binder": "PAK1 RBD (protein) KKEKERPEISLPSDFEHTIHVGFDAVTGEFTGMPEQWARLLQTSNITKSEQKKNPQAVLDVLEFYNSKKTSNSQKYMSFTDKSA", "values": [
      {"measurement": "Kd", "result": 243, "unit": "nM"}
    ]}
  ]
}
